Assays:
[1] = target: control (H1 Bri18 wild type HA ectodomain-foldon) (Influenza A virus A/Brisbane/02/2018 (H1N1)); assay: BLI (Octet), HA-foldon-His on Ni-NTA tips, IgG in solution
[2] = target: control (H1 Bri18 wild type HA ectodomain-foldon) (Influenza A virus A/Brisbane/02/2018 (H1N1)); assay: BLI (Octet) after 7D37C and trypsin; HA on Ni-NTA tips

| Substance | Octet response (nm) [1] [nm] | Octet response (nm) [2] [nm] |
| --- | --- | --- |
| CR9114 monoclonal antibody (IgG) | 0.826 | 0.693 |
| FI6v3 monoclonal antibody (IgG) | 0.856 | 0.697 |

From patent US20260207732A1
